Data on 2 molecules can be found in CN113512111A (BEIJING MABWORKS BIOTECH CO LTD, dated 2021).

Assay [1] has as its target T1, 埃博拉GP蛋白 on 埃博拉假病毒(扎伊尔型) (HIV-backbone luciferase pseudovirus) (埃博拉病毒(扎伊尔型) (Zaire ebolavirus), UniProt Q05320 33-676).
T1 sequence: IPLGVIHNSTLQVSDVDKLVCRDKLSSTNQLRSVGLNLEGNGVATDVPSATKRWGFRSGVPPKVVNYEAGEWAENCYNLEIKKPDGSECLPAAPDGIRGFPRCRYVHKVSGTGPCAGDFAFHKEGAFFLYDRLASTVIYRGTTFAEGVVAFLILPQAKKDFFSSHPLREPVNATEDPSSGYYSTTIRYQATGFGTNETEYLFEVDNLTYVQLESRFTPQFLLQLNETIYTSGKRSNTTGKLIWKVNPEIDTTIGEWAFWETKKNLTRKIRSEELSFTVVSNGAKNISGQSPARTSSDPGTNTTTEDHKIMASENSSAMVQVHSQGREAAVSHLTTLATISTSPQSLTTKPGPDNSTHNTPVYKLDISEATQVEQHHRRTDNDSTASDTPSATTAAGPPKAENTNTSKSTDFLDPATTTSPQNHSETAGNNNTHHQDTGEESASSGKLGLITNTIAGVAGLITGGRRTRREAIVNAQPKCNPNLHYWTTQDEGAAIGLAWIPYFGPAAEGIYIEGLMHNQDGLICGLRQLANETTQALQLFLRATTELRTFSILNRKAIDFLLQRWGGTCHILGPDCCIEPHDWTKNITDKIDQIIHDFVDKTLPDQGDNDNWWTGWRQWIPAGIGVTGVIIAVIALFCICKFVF
The assay is described as follows: cell-based or functional assay.

Assay [2] addresses T2, 埃博拉病毒表面抗原GP蛋白 (soluble GP used as the analyte in BIAcore) (埃博拉病毒 (Ebola virus), UniProt Q05320 33-650).
T2 sequence: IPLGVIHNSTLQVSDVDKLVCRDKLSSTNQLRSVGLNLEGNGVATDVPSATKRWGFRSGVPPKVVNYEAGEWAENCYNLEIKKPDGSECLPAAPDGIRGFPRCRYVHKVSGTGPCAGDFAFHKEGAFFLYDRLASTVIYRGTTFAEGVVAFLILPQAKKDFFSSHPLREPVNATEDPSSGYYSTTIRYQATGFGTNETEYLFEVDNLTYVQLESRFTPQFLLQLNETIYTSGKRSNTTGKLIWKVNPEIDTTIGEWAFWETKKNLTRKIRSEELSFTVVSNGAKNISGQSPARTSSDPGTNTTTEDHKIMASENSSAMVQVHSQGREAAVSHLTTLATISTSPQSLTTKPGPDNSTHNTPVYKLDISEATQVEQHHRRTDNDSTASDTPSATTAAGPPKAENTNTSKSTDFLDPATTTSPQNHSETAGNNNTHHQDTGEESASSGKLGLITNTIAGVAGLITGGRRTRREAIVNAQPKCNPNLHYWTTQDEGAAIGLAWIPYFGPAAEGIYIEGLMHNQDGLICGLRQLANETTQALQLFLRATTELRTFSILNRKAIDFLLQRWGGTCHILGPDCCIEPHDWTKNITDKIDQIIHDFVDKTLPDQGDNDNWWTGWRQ

For another assay, the target named is C1q蛋白 (UniProt P02745 23-245; P02746 28-253; P02747 29-245).
Chain of C1q蛋白 (P02745 23-245 limits assumed, chain 1 of 3): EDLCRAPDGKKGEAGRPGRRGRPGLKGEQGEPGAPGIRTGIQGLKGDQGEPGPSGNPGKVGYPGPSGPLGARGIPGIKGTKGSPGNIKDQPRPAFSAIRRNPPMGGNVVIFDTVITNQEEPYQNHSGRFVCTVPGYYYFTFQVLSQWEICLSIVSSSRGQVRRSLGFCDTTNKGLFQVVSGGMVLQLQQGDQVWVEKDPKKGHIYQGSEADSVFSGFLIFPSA
Chain of C1q蛋白 (P02746 28-253 limits assumed, chain 2 of 3): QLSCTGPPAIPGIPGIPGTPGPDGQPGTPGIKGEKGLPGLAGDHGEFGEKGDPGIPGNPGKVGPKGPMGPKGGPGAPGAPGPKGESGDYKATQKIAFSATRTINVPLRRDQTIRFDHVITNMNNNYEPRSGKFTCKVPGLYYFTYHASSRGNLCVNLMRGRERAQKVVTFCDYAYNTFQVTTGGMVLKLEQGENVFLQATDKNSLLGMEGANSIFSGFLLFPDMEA
Chain of C1q蛋白 (P02747 29-245 limits assumed, chain 3 of 3): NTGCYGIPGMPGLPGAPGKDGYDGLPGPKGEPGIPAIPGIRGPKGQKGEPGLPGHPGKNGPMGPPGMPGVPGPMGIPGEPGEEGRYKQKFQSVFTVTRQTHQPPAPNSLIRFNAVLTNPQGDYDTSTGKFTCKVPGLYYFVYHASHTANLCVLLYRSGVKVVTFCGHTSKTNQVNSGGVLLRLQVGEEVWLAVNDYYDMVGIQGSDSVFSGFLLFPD
The target in the next assay is FcγRIIIa(158V) (UniProt P08637 17-208).
Chain of FcγRIIIa(158V) (P08637 17-208 F176V limits assumed): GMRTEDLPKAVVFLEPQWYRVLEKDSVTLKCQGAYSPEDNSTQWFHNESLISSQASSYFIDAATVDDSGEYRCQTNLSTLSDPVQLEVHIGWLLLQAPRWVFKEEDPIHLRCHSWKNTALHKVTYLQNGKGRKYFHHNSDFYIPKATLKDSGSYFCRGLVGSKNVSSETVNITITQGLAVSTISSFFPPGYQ

B1: 抗体MIL77-2 (anti-Ebola virus glycoprotein monoclonal antibody, afucosylated, made in CHOK1-AF cells) (antibody)
heavy: not shown
light: DIQMTQSPASLSASVGETVTITCRASENIYSYLAWYQQKQGKSPQLLVYNAKTLIEGVPSRFSGSGSGTQFSLKINSLQPEDFGSYFCQHHFGTPFTFGSGTELEIKRTVAAPSVFIFPPSDEQLKSGTASVVCLLNNFYPREAKVQWKVDNALQSGNSQESVTEQDSKDSTYSLSSTLTLSKADYEKHKVYACEVTHQGLSSPVTKSFNRGEC
For the molecule B1, in assay [1], the “体外假病毒感染细胞中和活性 半数抑制浓度(IC50), HEK293细胞体系, batch M20141202” value was 0.058 mg/L; the “体外假病毒感染细胞中和活性 半数抑制浓度(IC50), HEK293细胞体系, batch M20141203” value came out at 0.023 mg/L; the “体外假病毒感染细胞中和活性 半数抑制浓度(IC50), HEK293细胞体系, batch M20150101” value came to 0.017 mg/L; the “体外假病毒感染细胞中和活性 半数抑制浓度(IC50), Huh7细胞体系, luciferase reporter” value was found to be 0.359 mg/L. In addition, the Kd in assay [2] was in the range of 0.0319 to 0.0362 µM. Besides, the EC50 with C1q蛋白 is 0.772 to 0.968 mg/L. This molecule also registered a 50% effective concentration (EC50) with FcγRIIIa(158V) of 0.054 to 0.073 mg/L.

B2: 抗体MIL77-1 (anti-Ebola virus glycoprotein monoclonal antibody, afucosylated, made in CHOK1-AF cells) (antibody)
heavy: not shown
light: DIQMTQSPASLSVSVGETVSITCRASENIYSSLAWYQQKQGKSPQLLVYSATILADGVPSRFSGSGSGTQYSLKINSLQSEDFGTYYCQHFWGTPYTFGGGTKLEIKRTVAAPSVFIFPPSDEQLKSGTASVVCLLNNFYPREAKVQWKVDNALQSGNSQESVTEQDSKDSTYSLSSTLTLSKADYEKHKVYACEVTHQGLSSPVTKSFNRGEC
Take B2: the “体外假病毒感染细胞中和活性 半数抑制浓度(IC50), HEK293细胞体系, batch M20141202” value in assay [1] is 4.59 mg/L. Further, the “体外假病毒感染细胞中和活性 半数抑制浓度(IC50), Huh7细胞体系, luciferase reporter” value in assay [1] turned out to be 0.799 mg/L. The molecule also displayed a Kd in assay [2] of 0.0506 to 0.0538 µM. The values for the EC50 with C1q蛋白 and with FcγRIIIa(158V) were 0.818 to 0.96 mg/L and 0.062 to 0.064 mg/L, respectively.

By Kd is commonly meant a measure of binding affinity in units of concentration. Read a high Kd as a looser complex. By EC50 is commonly meant the concentration at which the effect is half-maximal. The low end stands for greater potency, the high end for weaker potency.
